Data published in article doi:10.1101/2024.04.02.587325, “Structural characterization of the Pseudomonas Aeruginosa MexR–mexR repressor-operator complex: a small-angle X-ray and neutron scattering perspective”.

Target: MexR (Pseudomonas aeruginosa, UniProt P52003)
Assay: ITC; one set of sites; N = 4.0 ± 0.1; dH 122.3 ± 5.2 kJ/mol; ITC: 20 mM NaPO4 pH 7.0, 150 mM NaCl, 5 mM beta-mercaptoethanol, 20 C; SEC of the complex: 20 mM HEPES, 150 mM NaCl, 2 mM TCEP
Details: protein: recombinant; tags: N-terminal His6-Trx removed by TEV; residual SM; chain copies: 4; blunt

Sequence of MexR (P52003 5-139, tags or fused parts left off): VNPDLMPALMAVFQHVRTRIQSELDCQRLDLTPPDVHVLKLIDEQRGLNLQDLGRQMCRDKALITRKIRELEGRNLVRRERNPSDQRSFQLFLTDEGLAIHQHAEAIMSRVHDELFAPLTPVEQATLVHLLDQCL

B1: 60 bp mexR-mexA operator DNA (PI+PII) (dsDNA)
DNA 1: AAATGTGGTTGATCCAGTCAACTATTTTGCTTATTTTAGTTGACCTTATCAACCTTGTTT
DNA 2: AAACAAGGTTGATAAGGTCAACTAAAATAAGCAAAATAGTTGACTGGATCAACCACATTT
Kd: 206 ± 52 nM
